From the Human Domainome abundance scans (Beltran et al. 2025)
± gives the uncertainty stated by the source.

B1: Lysine-specific demethylase 5C, residues 319 to 373; numbered along this chain, P41229 (parent)
chain: AQFIESYVCRMCSRGDEDDKLLLCDGCDDNYHIFCLLPPLPEIPKGVWRCPKCVM

Variants of: B1
Experiment: abundance fitness (aPCA) (normalised: wild type 0, dead -1); higher = more abundant; growth selection in yeast, the domain comes from the species named
Details: Homo sapiens

Row | Variant | abundance fitness
1 | G15N | -0.231 ± 0.099
2 | G15K | 0.086 ± 0.089
3 | G15S | 0.155 ± 0.066
4 | G15Y | -0.027 ± 0.11
5 | G15M | -0.142 ± 0.1
6 | G15H | -0.391 ± 0.14
7 | G15A | -0.037 ± 0.084
8 | G15D | -0.058 ± 0.12
9 | G15V | -0.025 ± 0.096
10 | G15P | 0.04 ± 0.074
11 | G15Q | -0.124 ± 0.086
12 | G15T | 0.029 ± 0.076
13 | G15R | 0.035 ± 0.075
14 | G15I | -0.065 ± 0.1
15 | G15L | -0.113 ± 0.064
16 | G15F | -0.008 ± 0.1
17 | G15C | 0.167 ± 0.12
18 | G15W | -0.169 ± 0.12
19 | G15E | 0.049 ± 0.12
20 | L23G | -0.086 ± 0.093
21 | L23A | 0.044 ± 0.1
22 | L23D | 0.084 ± 0.16
23 | L23K | 0.169 ± 0.1
24 | L23F | -0.405 ± 0.27

Row | Variant | abundance fitness
25 | L23I | -0.156 ± 0.14
26 | L23E | -0.078 ± 0.13
27 | L23H | -0.302 ± 0.28
28 | L23C | -0.122 ± 0.14
29 | R14S | 0.188 ± 0.16
30 | D19Y | -0.335 ± 0.13
31 | D19L | -0.162 ± 0.07
32 | D19P | -0.15 ± 0.098
33 | D19T | 0.242 ± 0.097
34 | D19H | -0.032 ± 0.098
35 | D19N | 0.04 ± 0.1
36 | D19V | -0.102 ± 0.086
37 | D19K | 0.064 ± 0.094
38 | D19S | -0.089 ± 0.072
39 | D19Q | -0.014 ± 0.13
40 | D19W | -0.146 ± 0.098
41 | D19M | -0.254 ± 0.1
42 | D19F | -0.103 ± 0.1
43 | D19A | 0.063 ± 0.1
44 | D19C | 0.019 ± 0.11
45 | D19R | -0.03 ± 0.081
46 | D19I | -0.198 ± 0.16
47 | D19G | 0.08 ± 0.1
48 | D19E | -0.091 ± 0.16

Row | Variant | abundance fitness
49 | D16F | 0.277 ± 0.17
50 | D16G | 0.085 ± 0.1
51 | D16V | -0.029 ± 0.1
52 | D16A | -0.063 ± 0.12
53 | D16Q | -0.16 ± 0.14
54 | D16N | 0.131 ± 0.18
55 | D16I | 0.089 ± 0.19
56 | D16W | -0.351 ± 0.18
57 | D16E | -0.072 ± 0.12
58 | D16T | -0.182 ± 0.12
59 | D16C | -0.115 ± 0.15
60 | D16S | 0.104 ± 0.093
61 | D16R | -0.026 ± 0.1
62 | D16Y | -0.115 ± 0.19
63 | D16M | 0.086 ± 0.13
64 | D16K | -0.265 ± 0.15
65 | S13C | -0.171 ± 0.14
66 | S13I | -0.029 ± 0.16
67 | S13Y | -0.149 ± 0.15
68 | S13N | -0.212 ± 0.17
69 | S13H | -0.239 ± 0.2
70 | S13F | -0.2 ± 0.15
71 | S13G | 0.074 ± 0.1
72 | S13P | -0.13 ± 0.14

Row | Variant | abundance fitness
73 | S13W | -0.237 ± 0.17
74 | S13E | 0.419 ± 0.15
75 | S13T | -0.035 ± 0.12
76 | S13K | -0.196 ± 0.26
77 | S13L | 0.044 ± 0.095
78 | S13V | -0.121 ± 0.1
79 | S13A | -0.231 ± 0.1
80 | S13D | -0.042 ± 0.18
81 | S13Q | -0.183 ± 0.16
82 | S13R | 0.007 ± 0.09
83 | D18M | 0.107 ± 0.11
84 | D18T | -0.065 ± 0.12
85 | D18L | 0.052 ± 0.078
86 | D18P | 0.176 ± 0.09
87 | D18H | 0.324 ± 0.18
88 | D18F | 0.157 ± 0.14
89 | D18I | 0.125 ± 0.14
90 | D18G | 0.183 ± 0.076
91 | D18N | -0.087 ± 0.18
92 | D18K | 0.184 ± 0.097
93 | D18R | 0.087 ± 0.083
94 | D18A | 0.112 ± 0.087
95 | D18S | 0.028 ± 0.093
96 | D18Y | -0.284 ± 0.16

Row | Variant | abundance fitness
97 | D18W | 0.035 ± 0.1
98 | D18C | -0.178 ± 0.18
99 | D18Q | 0.224 ± 0.11
100 | D18V | 0.034 ± 0.078
101 | D18E | 0.042 ± 0.092
102 | C12Y | -0.87 ± 0.25
103 | E17A | 0.123 ± 0.11
104 | E17S | -0.052 ± 0.1
105 | E17Q | -0.064 ± 0.12
106 | E17D | 0.078 ± 0.13
107 | E17C | 0.261 ± 0.19
108 | E17N | 0.257 ± 0.22
109 | E17H | -0.245 ± 0.23
110 | E17W | -0.176 ± 0.16
111 | E17Y | -0.285 ± 0.24
112 | E17I | -0.052 ± 0.21
113 | E17T | 0.087 ± 0.14
114 | E17K | -0.122 ± 0.16
115 | E17F | -0.062 ± 0.23
116 | E17P | -0.1 ± 0.14
117 | E17G | 0.023 ± 0.091
118 | E17V | 0.22 ± 0.11
119 | L22Y | -1.07 ± 0.45
120 | L22W | -0.838 ± 0.16

Row | Variant | abundance fitness
121 | L22C | -0.052 ± 0.13
122 | L22S | -0.474 ± 0.092
123 | L22M | 0.05 ± 0.1
124 | L22P | -0.897 ± 0.2
125 | L22H | -0.612 ± 0.23
126 | L22R | -0.169 ± 0.078
127 | L22Q | -0.561 ± 0.23
128 | L22V | -0.163 ± 0.11
129 | L22F | -0.551 ± 0.24
130 | L22K | -0.332 ± 0.13
131 | L22D | -1.1 ± 0.37
132 | L22E | -0.523 ± 0.17
133 | L22A | -0.243 ± 0.098
134 | L22G | -0.912 ± 0.16
135 | L22N | -0.4 ± 0.14
136 | K20M | -0.596 ± 0.2
137 | K20H | -0.103 ± 0.19
138 | K20C | -0.379 ± 0.3
139 | K20L | -0.087 ± 0.099
140 | K20N | -0.327 ± 0.23
141 | K20P | -0.043 ± 0.12
142 | K20T | 0.096 ± 0.13
143 | K20I | -0.489 ± 0.19
144 | K20G | -0.666 ± 0.2

Row | Variant | abundance fitness
145 | K20W | -0.317 ± 0.24
146 | K20A | -0.065 ± 0.13
147 | K20Q | -0.093 ± 0.14
148 | K20F | -0.16 ± 0.17
149 | K20R | -0.136 ± 0.15
150 | K20V | -0.253 ± 0.14
151 | K20Y | -0.035 ± 0.22
152 | L21S | -0.605 ± 0.09
153 | L21C | -0.304 ± 0.15
154 | L21A | -0.426 ± 0.1
155 | L21T | -0.164 ± 0.09
156 | L21I | -0.044 ± 0.12
157 | L21V | -0.348 ± 0.11
158 | L21E | -0.531 ± 0.27
159 | L21Q | -0.353 ± 0.19
160 | L21D | -0.87 ± 0.26
161 | L21R | -0.221 ± 0.11
162 | L21M | -0.167 ± 0.14
163 | L21F | -0.078 ± 0.1
164 | L21P | -0.683 ± 0.098
165 | L21Y | -0.338 ± 0.11
166 | L21N | -0.366 ± 0.12
167 | L21H | -0.458 ± 0.11
